Test results: the RNAGym collection of RNA variant scans (doi:10.1073/pnas.2313332121)

B1: TPR t1 (parent)
chain: GACCAAUCUGCCCUCAGAGCUCGAGAACAUCUUCGGAUGCAGAGGAGGCAGGCUUCGGUGGCGCGAUAGCGCCAACGUCCUCAACCUCCAAUGCAUCCCACCACAUGAUGAUGCCUGAAGAGCCUUGGUUUUUUG

Variants of: B1
Experiment: polymerase ribozyme fitness, log enrichment relative to wild type (log ratio); higher = more active; in vitro selection for triplet polymerase activity
How it was run: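 To select mutant libraries of each subunit of a heterodimeric triplet polymerase ribozyme, built by PCR and transcribed, each was annealed with a biotinylated primer, partner subunit and triplets, then incubated frozen at −7 °C. Extended constructs were gel-excised, captured on streptavidin beads and amplified by RT-PCR, in one round carried out in triplicate. Illumina sequencing of input and output libraries kept genotypes with ≥10 input reads and ≥1 read per output. Fitness is the base-2 logarithm of genotype enrichment relative to wild-type enrichment, from inverse-variance-weighted replicate averages.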

Row | Variant | polymerase ribozyme fitness (log ratio)
1 | GACCAAUCUACCUUCAGAGCUCGAGAACACAUUCGGAUGCAUAGGAGGCAGGCUUCGGUGGCGCGAUAGCGCCAACGUCCUCAACCUCCAAUGCAUCCCACCACAUGAUGAUGCCUGAAGAGACUGGGUUUUUUG [G10A C13U U30C C31A G42U C123A U126G] | -5.09
2 | GACCAAUCUACCCUCAGAGCUCGAGAACAUCUUCGGAUGCAGAGGAGGCAGGCUUCGGUGGCGCGAUAGCGUCAACGUCCUCAACCUCCAAUGCAUCCCACCACAUGAUGAUACCUGAAGAGCCUUGGUUUUUUG [G10A C72U G113A] | -1.32
3 | GACCAAUCUACCCUCAGAGCUCGAGAACAUCUUCGGAUGCAGAGGAGGCAGGCUUCGGUGGCGCGAUAGCGCGAACGUCCUCAACCUCCAAUGCAUCCCACCACAUGAUGAUGCCUGAAGAGCCUUGGUUUUUUG [G10A C73G] | -0.355
4 | GACCAAUCUACCCUCAGAGCUCGAGAACAUCUUCGGAUGCAUAGGAGGCAGGCUUCGGUGGCGCGAUAGCGCCAACGUCCUCAAGCUCCAAUGCAUCCCACCACAUGAUGAUGCCUGAAGAGCCUUGGUUUUUUG [G10A G42U C85G] | -1.94
5 | GACCAAUCUACCCUCAGAGCUCGAGAACAUCUUCGGAUGAAGAGGAGGCAGGCUUCGGUGGCGCGAUAGCGACAACGUCCUCAACCUCCAAUGCAUCCCACCACAUGAUGCUGCCUGAAGAGCCUUGGUUUUUUG [G10A C40A C72A A111C] | -1.19
6 | GACCAAUCUACUCUCAGAGCUCGAGAACAUCUUCGGAUGCAGAGGAGGCAGGCUUCGGUGGCGCGAUAGCGCCAACGUCCUCAACCUCCAAUGCAUCCCACCACAUGAUGAAGCCUGAAGAGCCUUGGUUUUUUG [G10A C12U U112A] | 1.73
7 | GACCAAUCUACCCUCAGAGUUCGAGACCAUCUUCGGAUGCAGAGGAGGCAGGCUUCGGUGUCGCGAUAGCGCCAACGUCCUCAACCUCCAAUGCAUCCCACUACAUGAUGAUGCCUGAAGAGCCUUGGUUUUUUG [G10A C20U A27C G61U C102U] | -6.05
8 | GACCAAUCUACCCUCAGAGCUCGAGAACAUCUUCGGAUGCAGAGGAGGCAGGAUUCGGUGGCGCGAUAGCCCCAACGUCCUCAACCUCCAAUGCAUCCCACCAUAUGAUAAUGGCUGAAGAGCCUUGGUUUUUUG [G10A C53A G71C C104U G110A C114G] | -6.44
9 | GACCAAUCUACUCUCAGAUCUCGAGAACAUCUUCGGAUGCAGAGGAGGCAGGCUUCGGUGGCGCGAUAGCGCCAACGUCCUCAAUCUCCAAUGCAUCCCACCACAUGAUGAUGCCUGAAGAGUCUUGGUUUUUUG [G10A C12U G19U C85U C123U] | -1.68
10 | GACCAAUCUACCCUCAGAGCUCGAGAACAUCUUCGGAUGCAGAGGAGGCAGGCUUGGGUGGCGCGAUAGCGCCAACGUCCUCAACCUCCAAUGCAUCCCACCACAUGAUGAUGCCUAAAGAGCCUUGGUUUUUUG [G10A C56G G117A] | -3.95
11 | GACCAAUCUACCCUCAGAGCUCGAGAACAUCUUCGGAUGCAGAGGAGGCAGGCUUCUGUGGCGCGAUAGCGCCAACGUCCUCAACCUCCGAUGCAUCCCACCACAUGAUGAUGCCUGAAGAGCCUAGGUUUUUUG [G10A G57U A90G U126A] | -1.18
12 | GACCAAUCUACCCUCAGAGCUCGAGAACAUCUUCGGAUGCAGAGAAGGCAGGCUUCGGUGGCGCGAUAGCGCCAACGUCCUCAACCUCCAAUGCCUCCCACAACAUGAUGAUGCCUGAAGAGCCUUGGUUUUUUG [G10A G45A A95C C102A] | -2.76
13 | GACCAAUCUACCCUCAGAGCUCGAGAACAUCUUCGGAUGUAGAGGAGGCAGGCUUCGGUGGCGCGAUACCGCCAACGUCCUCAACCUCCAAUGCAUCCCACCACAUGAUGAUGCCUGAAGAGGCUUGGUUUUUUG [G10A C40U G69C C123G] | -0.405
14 | GACCAAUCUACCCUCAUAGCUCGAGAACAUCUUCGGAUGCAGAGGAGGCAGGCUUCGGUGGCGCGAUAGCGCCAACGUCCUCAACCUCCAAUGCAUCCCACCACAUGAUGAUGCAUGAAGAGCCUUGGUUUUUUU [G10A G17U C115A G135U] | 0.196
15 | GACCAAUCUACCCUCAGAGCUCGAGAACAUCUUCGCAUGCAGAGGAGGCGGGCUUCGGUGGCGCGAUAGCGCCAACGUCCUCAACCUCCAAGGCAUCCCACCACAUGAUGAUGCCUGAAGAGCCUUGGUUUUUUG [G10A G36C A50G U92G] | -3.51
16 | GACCAAUCUACCCUCAGAGCUCGAGAACAUCUUCGGAUGCAGAGGAGGCAGGCUUUGGUGGCGCGAUAGCGCCAACGUCCUCAACCUCCAAUGCACCCCACCACAUGAUGAUGCCUGAAGAGCCUUGGUUUUUUG [G10A C56U U96C] | -0.627
17 | GACCAAUCUACCCUCAGAGCUCGAGAACAUCUUCGGAUGCAGAGGAGGCAGGCUUCGGUGGAGCGAUAGCGCCAACGUCCUCAACCUCCACUGCAUCCCACCACAUGAUGAUGCCUGAAGAGUCUUGGUUUUUUG [G10A C62A A91C C123U] | -0.505
18 | GACCAAUCUACCCUCAGAGCUCGAGAACAUCUUCGGAUGCAGAGGAGGCAGGCUUCGGUGGCGCGAUAGCGCCAACGUCCUCAACCUCCAAUGCAUCCCACCACAUGAUGAUGGCUGAAGAGCCUUGGUUUUUUA [G10A C114G G135A] | -3.42
19 | GACCAAUCUACCCUCAGAGCUCGAGAACAUCUUCGGAUGCAGAAGAAGCAGGCUUCGGUGCCGCGAUAGCGCCAACGUCCUCAACCUCCAAUGCAUCCCACCACAUGAUGAUGCCUGAAGAGCCUUGGUUUUUUG [G10A G44A G47A G61C] | -3.22
20 | GACCAAUCUACGCUCAGAGCUGGAGAACAUCUUCGGAUGCAGAGGAGGCAGGCUUCGGUGGCGCGAUAGCGCCAACGUCCUCAACCUCCAAUGCAUCCCACCAGAUGAUGAUGCCUGAAGAGCCUUGGUUUUUUG [G10A C12G C22G C104G] | -5.13
21 | GACCAAUCUAUCCUCAGAGCUCGAGAAAAUCUUCGGAUGCAGAGGAGGCAGGCUUCGGUGGCGCGAUAGCGCCAACGUCCUCAACCUCCAAUGCAUCCCACCACAUGAUGAUGCCUGAAGAGCCUUGGUUUUUUG [G10A C11U C28A] | -4.2
